± gives the uncertainty stated by the source.
B1: Transcription intermediary factor 1-beta, residues 620 to 671; numbered along this chain, Q13263 (parent)
chain: TLDDSATICRVCQKPGDLVMCNQCEFCFHLDCHLPALQDVPGEEWSCSLCHV

Variants of: B1
Experiment: abundance fitness (aPCA) (normalised: wild type 0, dead -1); higher = more abundant; growth selection in yeast, the domain comes from the species named
Settings: Homo sapiens

Abundance fitness: each site, then its substitutions
S5: Q -0.215 ± 0.11, D -0.267 ± 0.43, E -0.314 ± 0.1, R -0.064 ± 0.077, I -0.04 ± 0.17, P -0.18 ± 0.14
V11: L 0.009 ± 0.078, I -0.064 ± 0.11, W -0.409 ± 0.1, Q -0.136 ± 0.12, S -0.312 ± 0.084, G -0.221 ± 0.1, Y -0.515 ± 0.17, A -0.131 ± 0.081, M 0.059 ± 0.093, C -0.39 ± 0.12
L37: D -0.278 ± 0.21, N -0.334 ± 0.35, E -0.499 ± 0.17, W 0.118 ± 0.13, S -0.071 ± 0.11, V -0.094 ± 0.096, T 0.035 ± 0.14
L34: P 0.036 ± 0.18, T -0.065 ± 0.17, I -0.305 ± 0.17, C 0.274 ± 0.094, K 0.13 ± 0.15, D 0.325 ± 0.14, A 0.164 ± 0.13, V 0.062 ± 0.095, H 0.157 ± 0.17, N 0.543 ± 0.15
S48: G -0.071 ± 0.083, F -0.45 ± 0.18, E -0.014 ± 0.12, I -0.798 ± 0.2, A -0.112 ± 0.1, N -0.114 ± 0.28, D -0.242 ± 0.17, Y -0.094 ± 0.14
P15: I -0.359 ± 0.32, S -0.022 ± 0.1, M -0.168 ± 0.24, D -0.233 ± 0.2, Y -0.255 ± 0.2, G -0.126 ± 0.09, K -0.193 ± 0.2, F -0.787 ± 0.27, L -0.684 ± 0.15
L30: A -0.116 ± 0.16, T -0.292 ± 0.19, E -0.196 ± 0.17, M -0.299 ± 0.16, D -0.755 ± 0.2, N -0.264 ± 0.16, I -0.479 ± 0.22
L18: A -0.559 ± 0.13, C -0.317 ± 0.15, H -0.664 ± 0.4, R -0.889 ± 0.13, T 0.162 ± 0.15, I -0.371 ± 0.15, F -0.697 ± 0.25, P -0.729 ± 0.24
N22: K 0.05 ± 0.17, Q -0.116 ± 0.18, R -0.11 ± 0.12, H -0.449 ± 0.23, A -0.232 ± 0.11, C -0.092 ± 0.22, E 0.094 ± 0.15
M20: G -0.29 ± 0.095, F -0.192 ± 0.15, Y -0.296 ± 0.19, P 0.067 ± 0.17, R 0.003 ± 0.088, L -0.391 ± 0.11, H -0.755 ± 0.32, S -0.112 ± 0.11, C -0.225 ± 0.15, K -0.354 ± 0.2
Q23: R -0.172 ± 0.12, S -0.089 ± 0.11, H -0.486 ± 0.29, C -0.043 ± 0.13, M -0.371 ± 0.16, Y -0.336 ± 0.21, K -0.113 ± 0.21, T -0.066 ± 0.17, A -0.395 ± 0.12
L49: H 0.496 ± 0.15, P 0.1 ± 0.098, T 0.301 ± 0.086, G 0.334 ± 0.066, A 0.205 ± 0.076, W 0.066 ± 0.076, Y 0.131 ± 0.12
G42: P -0.085 ± 0.13, Q -0.028 ± 0.22, C -0.222 ± 0.16, S -0.265 ± 0.13, T 0.174 ± 0.12, F -0.161 ± 0.22, M -0.091 ± 0.14, H 0.083 ± 0.24, R -0.074 ± 0.099, W -0.302 ± 0.14
A36: C -0.713 ± 0.18, Y -0.499 ± 0.2, L -0.173 ± 0.11, W -0.527 ± 0.17, H -0.168 ± 0.19, R 0.058 ± 0.11, V 0.06 ± 0.093
F26: M -0.108 ± 0.2, E 0.04 ± 0.15, P -0.993 ± 0.24, R -0.045 ± 0.097, G 0.121 ± 0.1, D -0.034 ± 0.22, V -0.33 ± 0.11, A -0.063 ± 0.11
C9: Q -1.12 ± 0.48, M -0.706 ± 0.32, Y -1 ± 0.21, T -0.926 ± 0.23, G -0.931 ± 0.11, I -0.955 ± 0.3
C21: T -0.95 ± 0.27, H -0.445 ± 0.25, V -0.826 ± 0.11, P -0.697 ± 0.36, N -0.565 ± 0.21, W -1.14 ± 0.26
W45: Q -0.085 ± 0.22, H -0.103 ± 0.2, I -0.254 ± 0.16, N -0.377 ± 0.3, G -0.137 ± 0.086, T -0.54 ± 0.16, M -0.296 ± 0.2
Q38: I 0.079 ± 0.15, F -0.39 ± 0.14, T -0.345 ± 0.13, S -0.295 ± 0.099, W -0.482 ± 0.12, M -0.443 ± 0.15, C -0.401 ± 0.16
E44: I -0.35 ± 0.18, N -0.16 ± 0.2, Y -0.143 ± 0.23, V -0.217 ± 0.085
V40: P 0.264 ± 0.19, D -0.02 ± 0.15, K -0.221 ± 0.35, I -0.401 ± 0.23, E -0.403 ± 0.17, A -0.323 ± 0.14, G -0.301 ± 0.1, M -0.213 ± 0.22, N -0.218 ± 0.2, R 0.166 ± 0.098
T1: N 0.184 ± 0.36, A 0.314 ± 0.28, R -0.495 ± 0.23, H -0.593 ± 0.34, G -0.602 ± 0.27
D17: W -0.522 ± 0.15, G 0.076 ± 0.1, I -0.409 ± 0.24, T -0.074 ± 0.12, Q -0.186 ± 0.2, V -0.355 ± 0.11, M -0.364 ± 0.21
F28: L -0.393 ± 0.11, D -0.554 ± 0.34, E -0.321 ± 0.14, I -0.016 ± 0.16, N -0.724 ± 0.28, V -0.227 ± 0.092
T7: Q -0.118 ± 0.27, M -0.143 ± 0.15, C -0.451 ± 0.16, I -0.013 ± 0.13, D 0.024 ± 0.12, G -0.207 ± 0.08, R 0.077 ± 0.11, F -0.383 ± 0.12
E25: D -0.3 ± 0.26, R -0.136 ± 0.12, W -0.322 ± 0.13, I -0.298 ± 0.21, V -0.493 ± 0.11
Q13: K -0.032 ± 0.13, I -0.265 ± 0.16, G -0.016 ± 0.075, R -0.025 ± 0.079, C 0.091 ± 0.13, P -0.82 ± 0.16, D 0.144 ± 0.12, M -0.002 ± 0.1
H33: G -0.159 ± 0.083, T -0.235 ± 0.14
C32: S -0.507 ± 0.13, P -0.454 ± 0.16, L -0.925 ± 0.12, T -0.937 ± 0.18, A -0.545 ± 0.14
C50: Y -1.03 ± 0.34, G -0.278 ± 0.098, R -0.214 ± 0.11, E -0.232 ± 0.12, Q -0.329 ± 0.16
S46: V 0.059 ± 0.072, E 0.111 ± 0.082, H -0.113 ± 0.14, L -0.003 ± 0.078, R -0.101 ± 0.074, T -0.09 ± 0.11, P -0.208 ± 0.13, F -0.129 ± 0.11, I -0.01 ± 0.12, Y -0.245 ± 0.12
H51: E 0.107 ± 0.15, I -0.264 ± 0.18, T 0.31 ± 0.17, W -0.345 ± 0.19, D 0.041 ± 0.11, Y -0.553 ± 0.41, P 0.248 ± 0.17, C -0.281 ± 0.22, K -0.415 ± 0.17
G16: R -0.389 ± 0.11, D 0.076 ± 0.29, A -0.639 ± 0.15, S -0.091 ± 0.14, L -0.432 ± 0.12, C -1.11 ± 0.23, K -0.258 ± 0.32, E -0.307 ± 0.19, H -0.214 ± 0.17, P -0.945 ± 0.28
V19: T -0.314 ± 0.16, I 0.008 ± 0.23, N -0.556 ± 0.34
C27: Y 0.002 ± 0.16
I8: G -0.418 ± 0.078, W -0.348 ± 0.11, Y 0.077 ± 0.12, F 0.087 ± 0.22
P41: D -0.245 ± 0.21, I -0.302 ± 0.18, F -0.439 ± 0.15, E -0.073 ± 0.14, N -0.112 ± 0.17, Q -0.204 ± 0.17, M -0.303 ± 0.16, R -0.26 ± 0.096, K -0.645 ± 0.25
D39: W -0.545 ± 0.14, M -0.24 ± 0.14, Y -0.206 ± 0.17, I -0.121 ± 0.16, N -0.551 ± 0.27, Q -0.184 ± 0.17, C -0.212 ± 0.15, K -0.272 ± 0.21
D3: I -0.292 ± 0.2, H -0.205 ± 0.15, R -0.294 ± 0.096, T -0.661 ± 0.15, M -0.529 ± 0.16
D31: F -0.558 ± 0.16, A -0.257 ± 0.12, T -0.308 ± 0.12, G -0.004 ± 0.1, P -0.175 ± 0.16, Q 0.04 ± 0.21, H -0.024 ± 0.15, I -0.501 ± 0.18, S -0.317 ± 0.11
L2: C -0.198 ± 0.18, R -0.252 ± 0.12, W -0.323 ± 0.13, Y 0.045 ± 0.17, F -0.168 ± 0.15, E 0.021 ± 0.17
A6: H -0.303 ± 0.17, P -0.234 ± 0.16, S -0.223 ± 0.097, L -0.202 ± 0.081, M -0.069 ± 0.19, V -0.35 ± 0.08, Q -0.261 ± 0.13, D -0.274 ± 0.22
C24: F -0.965 ± 0.22, G -0.541 ± 0.12, D -0.769 ± 0.27
R10: F -0.271 ± 0.16, T -0.037 ± 0.13, M -0.113 ± 0.13, E -0.476 ± 0.17, H 0.136 ± 0.2, A -0.327 ± 0.12, W -0.574 ± 0.14
D4: S 0.016 ± 0.086, K 0.284 ± 0.16, Q -0.294 ± 0.17
C47: V -0.807 ± 0.089, R -0.552 ± 0.079, T -0.565 ± 0.11, Y -0.736 ± 0.17, M -0.794 ± 0.12
K14: N -0.408 ± 0.25, S -0.35 ± 0.26
H29: C -0.67 ± 0.2, A -1.01 ± 0.21, R -0.749 ± 0.13, Q -0.957 ± 0.25
E43: C -0.129 ± 0.12, S -0.007 ± 0.095, D 0.088 ± 0.17, I -0.092 ± 0.14
V52: S 0.075 ± 0.27, H -0.479 ± 0.44, L -0.369 ± 0.17, T -0.11 ± 0.21
P35: G -0.244 ± 0.096, K -0.18 ± 0.16, M -0.291 ± 0.15, W -0.799 ± 0.14, F -0.637 ± 0.17, V -0.458 ± 0.088

— the Human Domainome abundance scans (Beltran et al. 2025)
